Measurements published in patent US20210206880A1 (published 2021).
Residue numbers refer to the chain shown, from its start. Numbers in names are those of the source.

Key:
[1] = target: T1, MbNb207^cHopQ; assay: BLI (Octet), biotinylated MbNb207^cHopQ on streptavidin sensors
T1 construct: also called cHopQNbGFP207; 58 kDa Megabody

[2] = target: T1, MbNb207^cHopQ; assay: co-crystal structure

B1: MbNb60^cYgjkE2 (designed binder)
chain: QVQLVESGGGLVYKEETQSGLNNYARVVEKGQYDSLEIPAQVAASWESGRDDAAVFGFIDKEQLDKYVANGGKRSDWTVKFAENRSQDGTLLGYSLLQESVDQASYMYSDNHYLAEMATILGKPEEAKRYRQLAQQLADYINTCMFDPTTQFYYDVRIEDKPLANGCAGKPIVERGKGPEGWSPLFNGAATQANADAVVKVMLDPKEFNTFVPLGTAALTNPAFGADIYWRGRVWVDQFWFGLKGMERYGYRDDALKLADTFFRHAKGLTADGPIQENYNPLTGAQQGAPNFSWSAAHLYMLYNDFFRKQASGGGSGGGGSGGGGSGNADNYKNVINRTGAPQYMKDYDYDDHQRFNPFFDLGAWHGHLLPDGPNTMGGFPGVALLTEEYINFMASNFDRLTVWQDGKKVDFTLEAYSIPGALVQKLTAKDVQVEMTLRFATPRTSLLETKITSNKPLDLVWDGELLEKLEAKEGKPLSDKTIAGEYPDYQRKISATRDGLKVTFGKVRATWDLLTSGESEYQVHKSLPVQTEINGNRFTSKAHINGSTTLYTTYSHLLTAQEVSKEQMQIRDILARPAFYLTASQQRWEEYLKKGLTNPDATPEQTRVAVKAIETLNGNWRSPGGAVKFNTVTPSVTGRWFSGNQTWPWDTWKQAFAMAHFNPDIAKENIRAVFSWQIQPGDSVRPQDVGFVPDLIAWNLSPERGGDGGNWNERNTKPSLAAWSVMEVYNVTQDKTWVAEMYPKLVAYHDWWLRNRDHNGNGVPEYGATRDKAHNTESGEMLFTVKKDSLRLSCAASGFTFSRYAMSWVRQAPGKGPEWVSAINSPGGSTSYADSVKGRFTISRDNAKNTLYLQMNSLKPDDTAVYYCAKYERATEWGHTIVAVTPLLDGVHDYWGQGTQVTVSSHHHHHHEPEA
notes: also called Mb^Nb60cYgjkQE2
B1: binds [1].

B2: Nb60 HopQ-specific Nanobody (VHH)
VHH: QVQLQESGGGLVQPGGSLRLSCAASGFTFSRYAMSWVRQAPGKGPEWVSAINSPGGSTSYADSVKGRFTISRDNAKNTLYLQMNSLKPDDTAVYYCAKYERATEWGHTIVAVTPLLDGVHDYWGQGTQVTVSS
notes: also called cHopQ-specific Nanobody
B2: binds [2].

B3: MbNb60^c7HopQ mut2 (N277K, T270R) (designed binder)
chain: QVQLVESGGGLVQTKTTTSVIDTTNDAQNLLTQAQTIVNTLKDYCPILIAKSSSSNGGTNNANTPSWQTAGGGKNSCATFGAEFSAASDMINNAQKIVQETQQLSANQPKNITQPHNLNLNSPSSLTALAQKMLKNAQSQAEILKLANQVESDFNKLSSGHLKDYIGKCDASAISSANMTMQNQKNNWGNGCAGVEETQSLLKTSAADFNNQTPQINQAQNLANTLIQELGNNTYEQLSRLLTNDNGTNSKTSAQAINQAVNNLNERAKRLAGGTTKSPAYQATLLALRSVLGLWNSMGYAVICGGYTKSPGENNQKDFHYTDENGNGTTINCGGSTNSNGTHSYNGTNTLKADKNVSLSIEQYEKIHEAYQILSKALKQAGLAPLNSKGEKLEAHVTTSKYGSLRLSCAASGFTFSRYAMSWVRQAPGKGPEWVSAINSPGGSTSYADSVKGRFTISRDNAKNTLYLQMNSLKPDDTAVYYCAKYERATEWGHTIVAVTPLLDGVHDYWGQGTQVTVSSHHHHHHEPEA
notes: also called MbNb60^cHopQmut2; MbNb60^c7HopQ N277K T270R
B3: binds [1].

B4: MbNb60^c7HopQ mut3 (N277K, T270R, E197R) (designed binder)
chain: B3 chain with E197R
notes: also called MbNb60^cHopQmut3; MbNb60^c7HopQ N277K T270R E197R
B4: binds [1].
